{
  "source": "patent US20070048268A1",
  "molecular_target": "human IL-21 receptor (human) (UniProt Q9HBE5)",
  "experiment": "cell-based or functional assay",
  "data": [
    {"substance": "human IL-21-saporin immunotoxin conjugate (from UniProt P20656 25-277)", "values": [
      {"measurement": "3H-thymidine incorporation of MOLT-13 cells, relative to IL-21 treated cells", "result": 70, "unit": "%"},
      {"measurement": "growth inhibition of IM-9 cells, Alamar Blue proliferation assay, maximal conjugate concentration (250 ng/ml)", "result": 79, "unit": "%"},
      {"measurement": "growth inhibition of RAMOS cells, Alamar Blue proliferation assay, maximal conjugate concentration (250 ng/ml)", "result": 65, "unit": "%"},
      {"measurement": "growth of DEL cells, density relative to untreated cells", "result": 25, "unit": "%"},
      {"measurement": "growth of HuT-78 cells, density relative to untreated cells", "result": 33, "unit": "%"},
      {"measurement": "growth of HuT-102 cells, density relative to untreated cells", "result": 20, "unit": "%"},
      {"measurement": "growth of YT cells, density relative to untreated cells", "result": 33, "unit": "%"}
    ]}
  ]
}
